Results on 18 sequences are retold here after the supplement of paper PMC12764529.

A short description of data set [1]: folding stability dG unfold from trypsin proteolysis; higher = more stable. In short, it runs like this: (§1)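 Unfolding free energy was derived, per protease or combined, against a sequence-predicted unfolded-state K50 and a shared folded-state K50, starting from K50 inferred by Bayesian fitting of sequencing counts. Digestion with trypsin and chymotrypsin was carried out on designed mini-proteins under 80 residues without cysteine in a PA-tagged cDNA display construct. Only designs with AlphaFold2 dimer inter-PAE above 15 were kept.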

Data set [2] is described as follows: folding stability dG unfold from chymotrypsin proteolysis; higher = more stable. In short, it runs like this:
as §1

The nature of data set [3]: folding stability dG unfold (combined trypsin and chymotrypsin); higher = more stable. In short, it runs like this: as §1

± gives the half width of the 95% confidence interval.

In the case of “SAGGSAPEVKIVDVEEVDGEVKIKVEAPPGARLLIFNRATGKWEEVEVKPGDTITLPPGALVLVEPSAGGSA [r15_418_TrROS_Hall]”, the “folding stability dG unfold” value in data set [1] was found to be 1.77 ± 0.025 kcal/mol; in data set [2] it was 3.22 ± 0.035 kcal/mol; in data set [3], 2.88 ± 0.1 kcal/mol.
For “SAGGSAPFKAELVSYDPETGVATFKLTLPDGSEVTVVATLDPDGVPHVKAYFPDGSVYDIEEILASSAGGSA [r15_832_TrMRF]”, the figures for the “folding stability dG unfold” value in data set [1], in data set [2] and in data set [3] were 2.28 ± 0.076 kcal/mol, 3.893 ± 0.022 kcal/mol and 3.59 ± 0.1 kcal/mol, respectively.
“SAGGSAPFKIAEIESVEYDPNEGRPTIRITIEHDGRPVEIWVPPGGIQIFNMGDGEPIKEIPLDEISAGGSA [r15_85_TrROS]”: the “folding stability dG unfold” value was found to be 0.182 ± 0.25 kcal/mol in data set [1], 0.434 ± 0.48 kcal/mol in data set [2] and 0.0268 ± 0.26 kcal/mol in data set [3].
For “SAGGSAPGVITFMLPLDDIPPDPDGKWTHNEIKDHIRPFIQEAFGKDDIEIDVSPHPNGWVRITIRSAGGSA [r15_562_TrROS]”, in that order: 2.41 ± 0.074 kcal/mol, 2.76 ± 0.056 kcal/mol and 2.69 ± 0.079 kcal/mol.
On to “SAGGSAPGVTLVSSTSSTSTLPDGTTKSTTTTTYKSPTGTYTTTTTTTVDTSKGTTTPTTTVTPVSSAGGSA [r2_185_JUSTAS]”, for which the “folding stability dG unfold” value in data set [1] was found to be 0.645 ± 0.064 kcal/mol; in data set [2] it was 0.61 ± 0.16 kcal/mol; in data set [3], 0.692 ± 0.14 kcal/mol.
For “SAGGSAPIKIKTADGKTITVNAKDLSLELLKKADKVIITKPDGKKIELPAGAKIKKGDTVTIKIVKSAGGSA [r15_733_TrROS_Hall]”, in that order: 0.153 ± 0.11 kcal/mol, -0.437 ± 0.21 kcal/mol and -0.336 ± 0.33 kcal/mol.
For “SAGGSAPKNVTIEFPIMAKVPDPKWAIDEARELARKQGFENTEIENIHVNPGDPNYVMIDVKMTIPSAGGSA [r15_183_TrROS]”, in that order: 0.249 ± 0.11 kcal/mol, 0.278 ± 0.17 kcal/mol and 0.326 ± 0.24 kcal/mol.
In the same order, the values of “SAGGSAPLVATEVSVEGNTIVVRSVTRLPNGTLSEDVVLIELPPLPLPPPAPWSTFPETGRLRLGPSAGGSA [r15_335_JUSTAS]” are 0.159 ± 0.15 kcal/mol, 0.76 ± 0.21 kcal/mol and 0.481 ± 0.24 kcal/mol.
For the sequence “SAGGSAPPAVEEIAKILEELFPGYRVVAEAEPVRDPETDEVLLRIRVAVFDENGKVILELEITLPLSAGGSA [r15_1048_TrMRF]”, the “folding stability dG unfold” value came to 3.89 ± 0.054 kcal/mol in data set [1], 4.3 ± 0.068 kcal/mol in data set [2] and 4.19 ± 0.07 kcal/mol in data set [3].
Turning to “SAGGSAPPNIVRPYVRPFLIYNPNGEPAALGELVIFEAPEGRLILLRLRSLENGEELELPFLYPGESAGGSA [r15_819_TrMRF]”, the “folding stability dG unfold” value was found to be 2.71 ± 0.071 kcal/mol in data set [1], 3.453 ± 0.02 kcal/mol in data set [2] and 3.25 ± 0.037 kcal/mol in data set [3].
In the same order, the values of “SAGGSAPPPPETVRIRVRITLPDGRTLEIEIEVSREEAERLAKELADRLRELGYEVKVEIVEVEEVSAGGSA [r2_274_TrROS_Hall]” are 4.34 ± 0.31 kcal/mol, 3.14 ± 0.28 kcal/mol and 4.51 ± 0.32 kcal/mol.
Turning to “SAGGSAPPQTIPIIIKDPNGKVRIEPVQFDPGPGNFNWDIEHPNGEKHTITFTGPPDDLPPGDYIKSAGGSA [r15_596_TrROS]”, the “folding stability dG unfold” value in data set [1] is -0.575 ± 0.13 kcal/mol; in data set [2], 1.37 ± 0.068 kcal/mol; in data set [3], 0.784 ± 0.17 kcal/mol.
In the same order, the values of “SAGGSAPSSELLEEEFETEDKSNNTTIKIYKVPGTGDYLIETTTPSGKKTKLTLGPLSESEAKGLISAGGSA [r15_295_JUSTAS]” are 0.0974 ± 0.023 kcal/mol, 0.32 ± 0.097 kcal/mol and 0.32 ± 0.059 kcal/mol.
“SAGGSAPVEVRVSVEVLPDGTLRITVEFTLPNGEKLSVEFTIPLAPVPVVDLTSPEALFPALSLLSSAGGSA [r15_1018_TrMRF]”: the “folding stability dG unfold” value amounted to 2.43 ± 0.07 kcal/mol in data set [1], 2.41 ± 0.069 kcal/mol in data set [2] and 2.42 ± 0.17 kcal/mol in data set [3].
For “SAGGSAPVKLVVVYDEKTGEYRILAETPEGPVVFPFPRELFENIPLEDIAKLLNLEITEAVIVPNPSAGGSA [r15_801_TrMRF]”, in that order: 2.63 ± 0.086 kcal/mol, 3.67 ± 0.13 kcal/mol and 3.38 ± 0.13 kcal/mol.
Turning to “SAGGSAPVVRVEIVVLGTGEVRTLTLEEAKRFLEAHPDKIDRVLVRVEVFEPDASTSDDVDPDGVPSAGGSA [r15_99_TrMRF]”, the “folding stability dG unfold” value in data set [1] is 2.03 ± 0.034 kcal/mol; in data set [2], 1.97 ± 0.021 kcal/mol; in data set [3], 2.04 ± 0.07 kcal/mol.
For “SAGGSARIEPVGDYLVIEIPFRYPDGMEWYIEIVINPEEGKIPVDQYPPGDGEPVGEKTLPADEVKSAGGSA [r15_671_TrROS]”, in that order: 0.507 ± 0.14 kcal/mol, 2.27 ± 0.11 kcal/mol and 1.52 ± 0.23 kcal/mol.
In the same order, the values of “SAGGSARIKIDPPGKIKVYYNGQPFTIKPGVELDIQRTDDMIVLRIRMRDPDGKPVGEFPFMFRIKSAGGSA [r15_424_TrROS]” are 2.13 ± 0.073 kcal/mol, 2.59 ± 0.23 kcal/mol and 2.41 ± 0.24 kcal/mol.
